Like-named read-outs stand apart in the source and are kept apart here.
Experiments:
rLen c 3 [1] = target: T1, rLen c 3 (Lens culinaris, UniProt A0AT29); assay: Effect of lipid ligands on secondary structure and thermostability of rLen c 3 (CD spectroscopy); assay type: physicochemical, lentil; conditions: pH 7.4, ligand 1 mM
T1 construct: with the formation of the large fragment 1–80 and the protein without C-terminal Phe93; His8-TrxL (octahistidine-thioredoxin carrier) (N, cleaved yes); made in house; host or cells: Escherichia coli BL-21 (DE3)
T1 sequence (A0AT29 26-118): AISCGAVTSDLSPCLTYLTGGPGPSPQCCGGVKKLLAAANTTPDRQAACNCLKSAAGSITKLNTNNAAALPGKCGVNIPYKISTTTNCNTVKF
Method: (§1) Circular dichroism spectra were recorded at different temperatures, using a J-810 spectropolarimeter (Jasco, Hachioji, Tokyo, Japan) in a 0.1 cm path length quartz cell (Hellma GmbH & Co. KG, Mullheim, Germany) in the 190–250 nm range, and 0.2, using solutions of rLen c 3 in 10 mM phosphate buffer, pH 7.4, or 150 mM sodium chloride, pH 2.5, simulated gastric fluid, at a concentration of 17 µM. Fatty acids or lysolipids were added at a final concentration of 1 mM. Each experiment was performed twice, independently.

rLen c 3 [2] = target: T1, rLen c 3; assay: Effect of lipid ligands on gastrointestinal digestion of rLen c 3; assay type: in vitro ADME, lentil
Method: (§2) Simulation of gastrointestinal digestion in vitro was performed as described in [15]. Briefly, gastric digestion was performed for 2 h, using 50 ng of pepsin (p) (Sigma) per 1 μg of rLen c 3 in 0.1 M HCl, pH 2.0 (final protein concentration 0.05 mM). For duodenal digestion, pH of the mixture resulting from gastric digestion was adjusted to 8.0 by addition of ammonium bicarbonate. The obtained mixture was incubated for 24 h at 37 °C with 2.5 ng of trypsin (t) (Promega, Madison, WI, USA) and 10 ng of α-chymotrypsin (ch) (Sigma) per 1 μg of the substrate. Degree of proteolysis was monitored by sodium dodecyl sulfate polyacrylamide gel electrophoresis (SDS-PAGE) under reducing conditions and reversed-phase high-performance liquid chromatography (RP-HPLC) on Luna C18 column (5 μm, 250 × 4.6 mm; Phenomenex, Torrance, CA, USA) at a flow rate of 0.5 mL/min, using a gradient of acetonitrile concentration from 5 to 65% for 45 min in 0.1% trifluoroacetic acid (TFA). Gel analysis was performed, using a densitometer. Electroblotting and subsequent N-terminal protein sequencing were performed as described. The protein was preheated at 100 °C for 30 min to study the effect of temperature on allergen stability. rLen c 3 was preloaded with various lipid ligands (LTP to lipid molar ratio 1:4) for 10 min, in order to investigate their effects on allergen resistance to proteolytic digest. As a control of the influence of lipid ligands on the work of proteolytic enzymes, the same reactions were carried out, using bovine α-casein (Sigma) as a substrate. Some independent experiments were performed in each case.

rLen c 3 [3] = target: T1, rLen c 3; assay: ELISA of IgE binding to rLen c 3 preincubated with lipid ligands; design: species or system lentil; conditions: preincubation with 60 μM ligand, sera with 10 μM ligand; sera from 10 patients; p > 0.1
Method: To study the effects of lipid ligands on IgE binding capacity of allergen, rLen c 3 was covalently bound to Nunc Immobilizer Amino surface plates (Thermo Scientific, Waltham, MA, USA), according to peptide coupling protocol. rLen c 3 solution (100 μg/mL) in 100 mM sodium carbonate, pH 9.6, was added to the wells; after that, the plates were incubated at 25 °C for 2 h. Then 10 mM ethanolamine at the same buffer was used for the plates post-coupling at 25 °C for 1 h. Pre-incubation with PBS or lipid ligand solutions in PBS at concentration of 60 μM was performed overnight at 4 °C. After that, the plates were incubated with selected sera in 1:4 dilution, overnight, at 4 °C, with the absence or presence of 10 μM lipid ligands, due to the reversibility of Len c 3-ligand complexes. Subsequent steps of ELISA were carried out as described above. This experiment was performed twice, independently.

rLen c 3 [4] = target: T1, rLen c 3; assay: TNS displacement lipid binding assay; design: species or system lentil; conditions: for IC50: 25 °C, 4 μM TNS, 4 μM rLen c 3, read-out: IC50 (TNS displacement)
Method: The ability of rLen c 3 to bind lipids was assayed by monitoring the displacement of the fluorescent probe TNS. Fluorescence intensity was measured at 25 °C with a F-2710 spectrofluorimeter (Hitachi, Tokyo, Japan), using a […] slit width for both excitation (λ = 320 nm) and emission (λ = 437 nm) and the measurement taken for no longer than 1.5–2 s. After equilibrating TNS (4 μM) in 10 mM phosphate buffer, pH 7.4, or 150 mM sodium chloride, pH 2.5, for 2 min with gentle mixing, the 2 mM of competing ligand was titrated into the 2 mL of 4 μM rLen c 3 solution in 1 μL aliquots. The resulting data were fitted by using a sigmoidal curve-fitting in GraphPad Prism from which the concentration able to displace 50% of the TNS (IC50) was calculated. The dependence of the ligand binding on temperature was performed at 20, 40, 60, 90, and 20 °C, after cooling down as previously described. Temperature was checked with a temperature probe in the cuvette. Each experiment was performed in triplicate, independently.

[5] = Circular dichroism spectroscopy of rLen c 3 (pH and heat stability, secondary structure); assay type: physicochemical; conditions: for random (secondary structure estimation from Far-UV CD spectra) / turn (secondary structure estimation from Far-UV CD spectra) / α-helix (secondary structure estimation from Far-UV CD spectra) / β-sheet (secondary structure estimation from Far-UV CD spectra): lipid 1 mM where added
Method: as §1

[6] = tested on: trypsin and α-chymotrypsin; assay: In vitro duodenal digestion after gastric digestion (SDS-PAGE densitometry); assay type: in vitro ADME
Method: as §2

pepsin = assay: In vitro gastric digestion (SDS-PAGE); assay type: in vitro ADME; conditions: pepsin, pH 2.0, 2 h
Method: as §2, with “As a control of the influence of lipid ligands on the work of proteolytic enzymes, the same reactions were carried out, using bovine α-casein (Sigma) as a substrate. Some independent experiments were performed in each case.” left out

[7] = tested on: specific IgE in sera of allergic patients; assay: ELISA of sIgE binding to intact, heated or digested rLen c 3; design: species or system human
Method: Sera from allergic patients (n = 100) with food and pollen allergy were obtained from the Clinical Diagnostic Center of G.N. Gabrichevsky Research Institute for Epidemiology and Microbiology. The work with human sera was approved by the local ethical committees of this Institute (FS-99-01-009026, Moscow, Russia). The amount of specific IgE (sIgE) to allergen extracts in the patient sera was determined by using RIDA qLine Allergy Panel 1-4 (R-Biopharm, Pfungstadt, Germany). Screening of sera containing sIgE to peach Pru p 3 and Len c 3 was performed by ELISA. For that, plate wells (Corning Incorporated, Corning, NY, USA) were coated with recombinant allergen (0.5 μg/well) in 0.01 M phosphate buffered saline (PBS), pH 7.4, for 1 h, at 37 °C; saturated with 2% bovine serum albumin (SERVA, Heidelberg, Germany) in PBS buffer for 1 h, at 37 °C; and then incubated with the sera of allergic patients (1:4 dilution), for 2 h, at 37 °C. Specific IgE binding was detected by using peroxidase-conjugated anti-human IgE from goat (Sigma) (1:2000 dilution), and 3,3′,5,5′-tetramethylbenzidine (TMB) liquid substrate system for ELISA (Sigma). The enzymatic reaction was stopped after 30 min by 2 N H2SO4 and absorbance values were determined at 450 nm. Moreover, 0.01 M PBS with 0.05% Tween-20 was used as a washing solution on each step. For sIgE binding experiments with the intact or heated (at 100 °C for 30 min) or digested (gastric and subsequent duodenal digestion for 2 h) rLen c 3, patient sera containing sIgE were selected (Table S3). Intact and treated rLen c 3 samples were coated in wells of 96-well plates (0.5 μg/well), and ELISA was performed as described above. Sera samples from non-allergic individuals were used as a negative control.

[8] = 20 °C end (after cooling down from 98.5 °C), pH 7.4

CCCCCCCCCCCCCCCC(=O)OC[C@@H](O)COP(=O)(O)OCC(O)CO (stereo partly drawn) [LPPG, lyso-palmitoyl phosphatidylglycerol]
Recovery of rLen c 3 structure after cooling down in the presence of ligand (rLen c 3 [1]; cooling down to 20 °C after 98.5 °C): complete recovery of the native conformation
Effect of ligand on rLen c 3 thermostability (resistance to thermal denaturation) (rLen c 3 [1]; heating up to 98.5 °C): most pronounced effect
Degradation of rLen c 3 in the presence of ligand (rLen c 3 [2]; 24 h of duodenal digestion, LTP to lipid molar ratio 1:4): ~ 55%
Effect of protein preheating before digestion in the presence of ligand on rate of allergen degradation (rLen c 3 [2]; after 4 and 24 h, effect more pronounced with LPPC): slightly increased
Effect of ligand on rLen c 3 degradation rate (proteolytic digestion) (rLen c 3 [2]; gastric then duodenal digestion, LTP to lipid molar ratio 1:4): more pronounced
Effect of ligand on IgE binding capacity of rLen c 3 (rLen c 3 [3]): small increase
IC50 (rLen c 3 [4]; 10 mM phosphate buffer, pH 7.4): 4.3 ± 0.2 µM
IC50 (rLen c 3 [4]; 150 mM sodium chloride, pH 2.5): 4.3 ± 0.03 µM
Change of rLen c 3 affinity for the ligand at acidic pH (rLen c 3 [4]; pH 2.5 compared with pH 7.4): remained unchanged
Ability of rLen c 3 to bind the ligand after heating and cooling down (rLen c 3 [4]; pH 7.4, heated from 20 to 90 °C, then cooled down to 20 °C): almost completely restored

rLen c 3: recombinant lentil allergen Len c 3, a lipid transfer protein, overexpressed in Escherichia coli
random (secondary structure estimation from Far-UV CD spectra) [5, 8]: 34.9%
turn (secondary structure estimation from Far-UV CD spectra) [5, 8]: 21.8%
α-helix (secondary structure estimation from Far-UV CD spectra) [5, 8]: 5.6%
β-sheet (secondary structure estimation from Far-UV CD spectra) [5, 8]: 37.7%
random (secondary structure estimation from Far-UV CD spectra) ([5]; 20 °C, pH 7.4): 30.3%
α-helix (secondary structure estimation from Far-UV CD spectra) ([5]; 20 °C, pH 7.4): 28.4%
β-sheet (secondary structure estimation from Far-UV CD spectra) ([5]; 20 °C, pH 7.4): 19.1%
Protein folding state on heating ([5]; 98.5 °C, pH 7.4): almost completely unfolded
random (secondary structure estimation from Far-UV CD spectra) ([5]; 98.5 °C, pH 7.4): 33.9%
turn (secondary structure estimation from Far-UV CD spectra) ([5]; 98.5 °C, pH 7.4): 22.0%
α-helix (secondary structure estimation from Far-UV CD spectra) ([5]; 98.5 °C, pH 7.4): 6.6%
β-sheet (secondary structure estimation from Far-UV CD spectra) ([5]; 98.5 °C, pH 7.4): 37.4%
Recovery of CD spectrum after cooling down ([5]; cooled down to 20 °C after 98.5 °C, pH 7.4): not recovered
CD spectrum at acidic pH mimicking gastric juice ([5]; pH 2.5 vs pH 7.4, 20 °C): remains almost unchanged
Temperature required for allergen denaturation ([5]; pH 7.4, also shown in ref 17): above 80 °C
Intact protein cleaved (densitometric gel analysis) ([6]; 30 min of duodenal digestion after 2 h gastric digestion): more than 65%
Intact protein cleaved (densitometric gel analysis) ([6]; 2 h of duodenal digestion after 2 h gastric digestion): > 85%
rLen c 3 degradation ([6]; 24 h of duodenal digestion): 100%
Effect of protein preheating on degradation ([6]; preheating at 100 °C for 30 min before digestion): slightly increased an efficiency of the allergen degradation
Stability to gastric digestion (pepsin): remarkable stability
IgE-binding capacity after heating ([7]; 100 °C for 30 min, vs intact rLen c 3, patient sera 1:4): significantly (p < 0.001) reduced
IgE-binding in rPru p 3 IgE+ sera ([7]; all rPru p 3 IgE+ sera, compared with rPru p 3): lower values than for rPru p 3
IgE-binding capacity after proteolytic digestion ([7]; gastric and subsequent duodenal digestion for 2 h, vs intact rLen c 3, patient sera 1:4): significantly (p < 0.001) reduced

From article PMC7763088, “Impact of Different Lipid Ligands on the Stability and IgE-Binding Capacity of the Lentil Allergen Len c 3” (Biomolecules, 2020)
